Measurements from patent publication US6465220B1, “Glycosylation using GalNac-T4 transferase” (GlycoZym ApS, priority 1998, dated 2002).

How the values were obtained:
Type in all cases: biochemical
GalNAc-T4 = target: T1, GalNAc-T4 (Homo sapiens, UniProt Q8N4A0); assay: GalNAc-transferase assay with purified recombinant GalNAc-T4; details: for GalNAc-T4 activity with substrate (in words): purified GalNAc-T4
T1 construct: made in house; host or cells: High Five insect cells (baculovirus, pAcGP67 vector)
Protocol: (§1) In the examples, GalNAc-transferase assays were performed in 50 μl total reaction mixtures containing 25 mM cacodylate (pH 7.5), 10 mM MnCl2, 0.1-0.25% Triton X-100, 150-200 μM UDP-[^14C]-GalNAc (4,000 cpm/nmole) (Amersham) and 0.06-1 mM acceptor peptides. Peptides were either synthesized or obtained from Carlbiotech (Copenhagen), or Neosystems (Strasbourg), and quality was ascertained by amino acid analysis and mass spectrometry. Peptides Muc-1a, Muc-1b, and TAP24, were derived from the tandem repeat of human MUC1, Gendler et al., J. Biol. Chem. 265:15286 (1990), and Muc2, Muc5AC, and Muc7 from the tandem repeats of MUC2, MUC5AC, and MUC7, respectively. Gum et al., J. Biol. Chem. 264:6480 (1989); Porchet et al., Biochem. Soc. Trans. 23:800 (1995); Bobek et al., J. Biol. Chem. 268:20563 (1993). GalNAc4TAP24 was produced by in vitro glycosylation using GalNAc-T2 as described in Wandall et al., J. Biol. Chem. 272:23503 (1997). Products were quantified by scintillation counting after chromatography on Dowex-1, octadecyl silica cartridges (Bakerbond), or HPLC (PC3.2/3 or mRPC C2/C18 SC2.1/10 Pharmacia, Smart System). Products produced by in vitro glycosylation were in most cases also confirmed by mass spectrometry.
In this example, GalNAc-T4 was expressed in Sf9 insect cells. Expression constructs designed to contain amino acid residues 32-578 of the coding sequence of the putative GalNAc-T4 gene shown in SEQ ID NO:1 prepared by genomic PCR of two clones containing GalNAc-T4 (described in Bennett et al. (1998), supra) were cloned into a BamHI site of the expression vector pAcGP67 (Pharmingen), and the expression construct was sequenced. The constructs pAcGP67-GalNAc-T4506Vsol and pAcGP67-GalNAc-T4506 I sol, were designed to yield a putative soluble form of the GalNAc-T4 protein with an N-terminal end positioned immediately C-terminal to a potential transmembrane domain and including the entire sequence expected to contain the catalytic domain. […] Res. Comm. 211:347 (1995).
The activities presented in Table I were obtained with purified GalNAc-T4 and -T2, and are expressed as mU/mg (the concentration of enzyme protein estimated by SDS-PAGE using BSA as standard).

GalNAc-T3 = target: T2, GalNAc-T3 (Homo sapiens, UniProt Q14435); assay: GalNAc-transferase assay with purified recombinant GalNAc-T3; details: acceptor substrate
T2 construct: Control constructs pAcGP67-GalNAc-T1-sol, pAcGP67-GalNAc-T2-sol, pAcGP67-GalNAc-T3-sol, and pAcGP67-O^2-sol were prepared as previously described; made in house; host or cells: insect cells (baculovirus, pAcGP67)
T2 sequence (Q14435 38-633 limits assumed): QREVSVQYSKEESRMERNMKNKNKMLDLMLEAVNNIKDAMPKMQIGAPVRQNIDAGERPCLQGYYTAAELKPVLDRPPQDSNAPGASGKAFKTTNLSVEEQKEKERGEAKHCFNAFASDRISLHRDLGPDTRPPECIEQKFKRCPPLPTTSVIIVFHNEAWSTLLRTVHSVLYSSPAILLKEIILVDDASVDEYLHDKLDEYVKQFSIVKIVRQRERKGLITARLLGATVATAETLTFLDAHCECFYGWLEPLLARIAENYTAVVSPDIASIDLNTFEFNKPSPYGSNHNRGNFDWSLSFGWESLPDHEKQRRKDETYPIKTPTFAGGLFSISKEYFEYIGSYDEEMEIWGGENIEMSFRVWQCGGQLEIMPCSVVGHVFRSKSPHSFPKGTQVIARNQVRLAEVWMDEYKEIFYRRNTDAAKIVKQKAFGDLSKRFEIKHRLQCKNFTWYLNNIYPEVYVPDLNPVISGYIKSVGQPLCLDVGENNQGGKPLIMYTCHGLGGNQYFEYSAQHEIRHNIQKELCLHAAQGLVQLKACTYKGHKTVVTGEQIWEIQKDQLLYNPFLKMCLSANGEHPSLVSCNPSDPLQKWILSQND
Protocol: as §1, with “The following examples are provided to illustrate certain preferred embodiments of the invention, and should be considered as illustration and not as limitation. In” for “In”
(§2) In this example, GalNAc-T4 was expressed in Sf9 insect cells. Expression constructs designed to contain amino acid residues 32-578 of the coding sequence of the putative GalNAc-T4 gene shown in SEQ ID NO:1 prepared by genomic PCR of two clones containing GalNAc-T4 (described in Bennett et al. (1998), supra) were cloned into a BamHI site of the expression vector pAcGP67 (Pharmingen), and the expression construct was sequenced. The constructs pAcGP67-GalNAc-T4506Vsol and pAcGP67-GalNAc-T4506 I sol, were designed to yield a putative soluble form of the GalNAc-T4 protein with an N-terminal end positioned immediately C-terminal to a potential transmembrane domain and including the entire sequence expected to contain the catalytic domain. Control constructs pAcGP67-GalNAc-T1-sol, pAcGP67-GalNAc-T2-sol, pAcGP67-GalNAc-T3-sol, and pAcGP67-O^2-sol were prepared as previously described in White et al., J. Biol. Chem 270:24156 (1995); Bennett et al., J. Biol. Chem. 271:17006 (1996); and Bennett et al., Biochem. Biophys. Res. Comm. 211:347 (1995).

GalNAc-T2 = target: T3, GalNAc-T2 (Homo sapiens, UniProt Q10471); assay: GalNAc-transferase assay with purified recombinant GalNAc-T2
T3 construct: Control constructs pAcGP67-GalNAc-T1-sol, pAcGP67-GalNAc-T2-sol, pAcGP67-GalNAc-T3-sol, and pAcGP67-O^2-sol were prepared as previously described; made in house; host or cells: insect cells (baculovirus, pAcGP67)
Protocol: as §1, with “The following examples are provided to illustrate certain preferred embodiments of the invention, and should be considered as illustration and not as limitation. In” for “In”
as §2
Activities measured with the mucin derived substrates, Muc7, EA2, and Muc2 (see Table I for structures and SEQ ID NOs:19, 25 and 18, respectively), were only 2-7 fold over background values. Very low activities with a few other substrates were also observed, but for many of the “mucin-like” substrates a relative high background with Sf9 cells infected with irrelevant constructs made assessment difficult. GalNAc-T4 was expressed in High Five cells and purified to near homogeneity, however, very low endogenous activity was detected with some substrates in the same fractions when medium from cells infected with irrelevant expression constructs were used in the same purification strategy. The activities presented in Table I were obtained with purified GalNAc-T4 and -T2, and are expressed as mU/mg (the concentration of enzyme protein estimated by SDS-PAGE using BSA as standard). The highest activities with GalNAc-T4 were found from assays of Sf9 medium with the mucin peptides Muc7, EA2, and Muc2, however, the efficiencies with these substrates were considerably lower than GalNAc-T2.

GalNAc-T1 = target: T4, GalNAc-T1 (Homo sapiens, UniProt Q10472); assay: GalNAc-transferase assay with purified recombinant GalNAc-T1; details: acceptor substrate
T4 construct: Control constructs pAcGP67-GalNAc-T1-sol, pAcGP67-GalNAc-T2-sol, pAcGP67-GalNAc-T3-sol, and pAcGP67-O^2-sol were prepared as previously described; made in house; host or cells: insect cells (baculovirus, pAcGP67)
T4 sequence (Q10472 41-559 limits assumed): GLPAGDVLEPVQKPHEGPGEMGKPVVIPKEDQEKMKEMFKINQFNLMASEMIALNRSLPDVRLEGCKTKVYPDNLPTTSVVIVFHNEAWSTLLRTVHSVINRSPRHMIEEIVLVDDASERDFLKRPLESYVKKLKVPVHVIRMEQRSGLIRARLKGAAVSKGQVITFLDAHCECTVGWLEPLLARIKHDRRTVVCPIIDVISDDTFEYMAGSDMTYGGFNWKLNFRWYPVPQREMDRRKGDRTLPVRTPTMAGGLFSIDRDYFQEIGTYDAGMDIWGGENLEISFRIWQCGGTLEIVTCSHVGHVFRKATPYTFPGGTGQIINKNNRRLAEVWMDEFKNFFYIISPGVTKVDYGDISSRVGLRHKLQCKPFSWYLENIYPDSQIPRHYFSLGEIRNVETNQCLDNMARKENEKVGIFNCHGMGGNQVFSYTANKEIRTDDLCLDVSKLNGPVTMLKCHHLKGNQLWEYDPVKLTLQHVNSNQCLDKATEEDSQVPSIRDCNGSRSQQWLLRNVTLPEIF
Protocol: as §1, with “The following examples are provided to illustrate certain preferred embodiments of the invention, and should be considered as illustration and not as limitation. In” for “In”
In this example, GalNAc-T4 was expressed in Sf9 insect cells. Expression constructs designed to contain amino acid residues 32-578 of the coding sequence of the putative GalNAc-T4 gene shown in SEQ ID NO:1 prepared by genomic PCR of two clones containing GalNAc-T4 (described in Bennett et al. (1998), supra) were cloned into a BamHI site of the expression vector pAcGP67 (Pharmingen), and the expression construct was sequenced. […]

GalNAc-T4 activity with acceptor peptide (GalNAc-T4; 0.06 mM peptide in 50-μl assay) | GalNAc-T4 activity with acceptor peptide (GalNAc-T4; 0.25 mM peptide in 50-μl assay) | GalNAc-T2 activity with acceptor peptide (GalNAc-T2; 0.06 mM peptide in 50-μl assay) | GalNAc-T2 activity with acceptor peptide (GalNAc-T2; 0.25 mM peptide in 50-μl assay) | GalNAc-T4 activity with substrate (in words) (GalNAc-T4) | Sequence | also measured
15 ± 0.1 milliunits/mg | 42 ± 4 milliunits/mg | 152 ± 3 milliunits/mg | 376 ± 5 milliunits/mg |  | DSTTPAPTTK [EA2, mucin derived substrate] | Vmax GalNAc-T4 (GalNAc-T4; acceptor substrate): 0.44 nmol/min/µg; Km (GalNAc-T4; acceptor substrate, read-out: Km GalNAc-T4): 2190 µM; Km (GalNAc-T3): 460 µM; Vmax GalNAc-T3 (GalNAc-T3): 0.96 nmol/min/µg; Km (GalNAc-T2; acceptor substrate): 850 µM; Vmax GalNAc-T2 (GalNAc-T2; acceptor substrate): 1.80 nmol/min/µg; Km (GalNAc-T1): 70 µM; Vmax GalNAc-T1 (GalNAc-T1): 0.99 nmol/min/µg
 |  | 0.0 milliunits/mg | 0.0 milliunits/mg | not | QATEYEYLDYDFLPEC [PSGL-1a] | 
 | 0.7 ± 0.5 milliunits/mg |  | 198 ± 9 milliunits/mg | somewhat poor activities | RPAPGSTAPPA [Muc1b′, peptide derived from the tandem repeat of human MUC1] | GalNAc-T4 activity with acceptor peptide (GalNAc-T4; 1 mM peptide in 50-μl assay): 0.9 ± 0.8 milliunits/mg; GalNAc-T2 activity with acceptor peptide (GalNAc-T2; 1 mM peptide in 50-μl assay): 582 ± 9 milliunits/mg

Further lines, the sequence ahead of its results:

Sequence | GalNAc-T4 activity with acceptor peptide (GalNAc-T4; 0.06 mM peptide in 50-μl assay) | GalNAc-T4 activity with acceptor peptide (GalNAc-T4; 0.25 mM peptide in 50-μl assay) | GalNAc-T2 activity with acceptor peptide (GalNAc-T2; 0.06 mM peptide in 50-μl assay) | GalNAc-T2 activity with acceptor peptide (GalNAc-T2; 0.25 mM peptide in 50-μl assay) | GalNAc-T4 activity with substrate (in words) (GalNAc-T4) | also measured
PRFQDSSSSKAPPPSLPSPSRLPG [hCG-β] |  |  | 22 ± 0.5 milliunits/mg | 74 ± 2 milliunits/mg |  | 
PTTTPISTTTMVTPTPTPTC [Muc2, peptide from the tandem repeats of MUC2] | 9 ± 0.5 milliunits/mg | 29 ± 0.8 milliunits/mg | 169 ± 2 milliunits/mg | 128 ± 5 milliunits/mg |  | 
